Test system: DosR (His6-DosR, pre-phosphorylated with acetyl phosphate) (Mycobacterium tuberculosis)
Test: EMSA

hspX promoter probe
binding signal (fold inhibition of binding vs DMSO): 22
